# Results as given in patent US20260125478A1 (VIELA BIO, published 2026).
# T1: human FcγRIIA 131H on blood cells of 131H/H donors (human, UniProt P12318 34-317)
# T1 sequence (looked up): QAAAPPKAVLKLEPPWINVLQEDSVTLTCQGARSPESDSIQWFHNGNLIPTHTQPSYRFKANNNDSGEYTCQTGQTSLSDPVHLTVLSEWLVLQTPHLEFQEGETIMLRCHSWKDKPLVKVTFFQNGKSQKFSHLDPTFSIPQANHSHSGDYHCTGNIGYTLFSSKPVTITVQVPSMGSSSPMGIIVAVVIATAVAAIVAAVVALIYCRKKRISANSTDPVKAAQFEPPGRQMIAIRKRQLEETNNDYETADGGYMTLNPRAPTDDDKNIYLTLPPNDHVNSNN
# T2: human FcγRIIA 131R on blood cells of 131R/R donors (human, UniProt P12318 34-317)
# T2 sequence: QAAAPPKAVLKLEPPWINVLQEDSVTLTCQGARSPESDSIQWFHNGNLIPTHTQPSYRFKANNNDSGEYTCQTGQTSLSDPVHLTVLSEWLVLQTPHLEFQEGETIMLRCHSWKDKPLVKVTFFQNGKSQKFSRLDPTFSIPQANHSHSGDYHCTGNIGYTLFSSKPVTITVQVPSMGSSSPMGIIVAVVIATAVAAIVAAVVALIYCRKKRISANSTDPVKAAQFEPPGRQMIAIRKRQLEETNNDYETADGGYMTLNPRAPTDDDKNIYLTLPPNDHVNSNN
# T3: recombinant FcγRIIB (ELISA coat, generated at MedImmune) (UniProt P31994 43-217, limits assumed)
# T3 construct: also called CD32B
# T3 sequence (looked up): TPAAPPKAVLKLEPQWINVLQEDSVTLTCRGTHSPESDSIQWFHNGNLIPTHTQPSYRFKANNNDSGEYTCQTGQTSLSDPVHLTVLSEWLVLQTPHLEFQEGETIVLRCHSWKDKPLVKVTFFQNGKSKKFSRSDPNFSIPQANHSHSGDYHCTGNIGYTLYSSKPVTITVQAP
# T4: recombinant FcγRIIA-131H/H allotype (ELISA coat, generated at MedImmune) (human, UniProt P12318 34-217, limits assumed)
# T4 construct: also called human FcγRIIA; CD32A
# T4 sequence (looked up): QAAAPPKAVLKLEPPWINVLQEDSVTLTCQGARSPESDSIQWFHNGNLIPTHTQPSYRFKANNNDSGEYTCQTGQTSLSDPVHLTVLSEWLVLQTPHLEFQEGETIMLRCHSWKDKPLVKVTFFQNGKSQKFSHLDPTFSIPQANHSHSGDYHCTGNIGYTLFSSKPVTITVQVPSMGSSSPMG
# T5: Human CD32A 131R extracellular domain, 6xHis_Flag tagged (human, UniProt P12318 34-217)
# T5 construct: also called Hu CD32A_131Arg; human CD32A_131 Arg
# T5 chain: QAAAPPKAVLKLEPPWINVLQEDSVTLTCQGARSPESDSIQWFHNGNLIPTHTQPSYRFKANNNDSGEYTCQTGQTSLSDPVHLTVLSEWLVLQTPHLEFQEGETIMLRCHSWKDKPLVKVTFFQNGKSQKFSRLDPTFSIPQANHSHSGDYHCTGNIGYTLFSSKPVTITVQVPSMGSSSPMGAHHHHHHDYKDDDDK
# B1: CamIV3 (antibody, V domains shown)
# VH: QVQLVQSGAEVKKPGASVKVSCKASGYTFTNYGMNWVRQAPGQRLEWMGWLNTYTGESIYPDDFKGRVTITRDTSASTAYMELSSLRSEDTAVYYCARGDYGYDDPLDYWGQGTLVTVSS
# VL: DIVMTQSPLSLPVTPGEPASISCRSSKSLLHTLGNTYLHWFLQKPGQSPQLLIYRMSVLASGVPDRFSGSGSGTDFTLKISRVEAEDVGVYYCMQHLEYPLTFGQGTKLEIK
# B2: 32LO0356 (antibody, V domains shown)
# VH: QVQLVQSGAEVKKPGASVKVSCKASGYTFTNYGMNWVRQAPGQRLEWMGWLNTYTGESYYPDDFKGRVTITRDTSASTAYMELSSLRSEDTAVYYCARGDYGYDDPLDYWGQGTLVTVSS
# VL: DIVMTQSPLSLPVTPGEPASISCRSSKSLLHTNFNTYLHWFLQKPGQSPQLLIYRMSVLASGVPDRFSGSGSGTDFTLKISRVEAEDVGVYYCMQHLEYPLTFGQGTKLEIK
# B3: 32LO0350 (antibody, human IgG1, V domains shown)
# VH: QVQLVQSGAEVKKPGASVKVSCKASGYTFTNYGMNWVRQAPGQRLEWMGWLNTYTGESWYPDDFKGRVTITRDTSASTAYMELSSLRSEDTAVYYCARGDYGYDDPLDYWGQGTLVTVSS
# VL: DIVMTQSPLSLPVTPGEPASISCRSSKSLLHTNRNTYLHWFLQKPGQSPQLLIYRMSVLASGVPDRFSGSGSGTDFTLKISRVEAEDVGVYYCMQHLEYPLTFGQGTKLEIK
# notes: also called optimized IV.3 clone 32LO0350
# B4: 32LO0351 (antibody, V domains shown)
# VH: QVQLVQSGAEVKKPGASVKVSCKASGYTFTNYGMNWVRQAPGQRLEWMGWLNTYTGESYYPDDFKGRVTITRDTSASTAYMELSSLRSEDTAVYYCARGDYGYDDPLDYWGQGTLVTVSS
# VL: DIVMTQSPLSLPVTPGEPASISCRSSKSLLHTYGNTYLHWFLQKPGQSPQLLIYRMSVLASGVPDRFSGSGSGTDFTLKISRVEAEDVGVYYCMQHLEYPLTFGQGTKLEIK
# B5: 32LO0354 (antibody, human IgG1, V domains shown)
# VH: QVQLVQSGAEVKKPGASVKVSCKASGYTFTNYGMNWVRQAPGQRLEWMGWLNTYTGESYYPDDFKGRVTITRDTSASTAYMELSSLRSEDTAVYYCARGDYGYDDPLDYWGQGTLVTVSS
# VL: DIVMTQSPLSLPVTPGEPASISCRSSKSLLHTNRNTYLHWFLQKPGQSPQLLIYRMSVLASGVPDRFSGSGSGTDFTLKISRVEAEDVGVYYCMQHLEYPLTFGQGTKLEIK
# notes: also called optimized IV.3 clone 32LO0354
# B6: 32LO0355 (antibody, human IgG1, V domains shown)
# VH: QVQLVQSGAEVKKPGASVKVSCKASGYTFTNYGMNWVRQAPGQRLEWMGWLNTYTGESWYPDDFKGRVTITRDTSASTAYMELSSLRSEDTAVYYCARGDYGYDDPLDYWGQGTLVTVSS
# VL: DIVMTQSPLSLPVTPGEPASISCRSSKSLLHTNKNTYLHWFLQKPGQSPQLLIYRMSVLASGVPDRFSGSGSGTDFTLKISRVEAEDVGVYYCMQHLEYPLTFGQGTKLEIK
# notes: also called optimized IV.3 clone 32LO0355
# Assays:
# [1] = molecular target: T1, human FcγRIIA 131H on blood cells of …; assay: cell-based or functional assay
# [2] = molecular target: T2, human FcγRIIA 131R on blood cells of …; assay: cell-based or functional assay
# [3] = molecular target: cynomolgus monkey FcγRIIA on blood cells (cynomolgus monkey); assay: cell-based or functional assay
# [4] = molecular target: T6, recombinant human FcγRI (ELISA coat, generated at MedImmune) (human, UniProt P12314 16-292, limits assumed); assay: ELISA on plate-coated FcγRI (2 µg/ml), detection with goat anti-human Fc-HRP
# T6 construct: also called CD64
# Description: (§1) Plates were washed five times with 200 μl of wash buffer (PBS containing 0.1% Tween 20), blocked with blocking buffer containing 5% milk in PBS for 1 hour at room temperature, and washed five additional times with wash buffer. Three-fold serial dilutions of the test antibody or control antibody (R347-Tm) were added to wells in duplicate. Plates were incubated for 2 hours at room temperature, and washed five times with wash buffer. Binding of the antibodies to the FcγRs was detected by adding 50 μl of goat anti-human Fc-HRP (Jackson ImmunoResearch Laboratories, PA) to the wells and incubating for 1 hour at room temperature, washing 10 times, and adding 50 μl TMB substrate (Pierce Biotechnology, MA). The color reaction was stopped with 50 μl 0.2M […] and the absorbance was measured using a spectrophotometer (Molecular Devices, CA) at […].
# [5] = molecular target: T3, recombinant FcγRIIB (ELISA coat, …); assay: ELISA on plate-coated FcγRIIB (2 µg/ml), detection with goat anti-human Fc-HRP
# Description: as §1
# [6] = molecular target: T7, recombinant human FcγRIIIA-158F allotype (ELISA coat, generated at MedImmune) (human, UniProt P08637 17-208, limits assumed); assay: ELISA on plate-coated FcγRIIIA-158F (2 µg/ml), detection with goat anti-human Fc-HRP
# T7 construct: also called FcγRIII-158F allotype; CD16A 158F
# Description: as §1
# [7] = molecular target: T8, recombinant human FcγRIIIA-158V allotype (ELISA coat, generated at MedImmune) (human, UniProt P08637 17-208, limits assumed); assay: ELISA on plate-coated FcγRIIIA-158V (2 µg/ml), detection with goat anti-human Fc-HRP
# T8 construct: also called FcγRIII-158V allotype; CD16A 158V
# Description: as §1
# [8] = molecular target: T4, recombinant FcγRIIA-131H/H allotype …; assay: ELISA on plate-coated FcγRIIA-131H/H (2 µg/ml), detection with goat anti-human Fc-HRP
# Description: as §1
# [9] = molecular target: T5, Human CD32A 131R extracellular domain, …; assay: HTRF epitope competition: sample IgG titrated against binding of mouse IV.3 IgG to human CD32a 131R
# T7 sequence (P08637 17-208 limits assumed): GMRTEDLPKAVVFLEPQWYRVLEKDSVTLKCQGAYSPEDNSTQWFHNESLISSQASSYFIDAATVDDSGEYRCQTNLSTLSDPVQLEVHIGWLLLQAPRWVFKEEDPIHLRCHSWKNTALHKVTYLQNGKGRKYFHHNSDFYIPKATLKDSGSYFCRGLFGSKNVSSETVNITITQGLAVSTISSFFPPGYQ
# T8 sequence (P08637 17-208 F176V limits assumed): as the sequence (P08637 17-208 limits assumed) above, with F160V counted along it
# T6 sequence (P12314 16-292 limits assumed): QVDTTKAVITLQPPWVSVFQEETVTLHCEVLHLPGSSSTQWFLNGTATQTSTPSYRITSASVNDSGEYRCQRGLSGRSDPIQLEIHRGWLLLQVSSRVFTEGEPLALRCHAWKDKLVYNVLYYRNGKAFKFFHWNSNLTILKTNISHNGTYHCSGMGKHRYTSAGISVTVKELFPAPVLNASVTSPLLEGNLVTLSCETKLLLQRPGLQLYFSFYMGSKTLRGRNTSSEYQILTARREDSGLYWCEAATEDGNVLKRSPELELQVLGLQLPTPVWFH
binder,measurement,setting,value
B1,"IC50 of the loss of surface FcγRIIA (M.F.I of IV.3-Alexa 647) on monocytes, whole blood, 2 h at 37 °C",[1],0.241 nM
same,"IC50 of the loss of surface FcγRIIA (M.F.I of IV.3-Alexa 647) on monocytes, whole blood, 2 h at 37 °C",[2],0.307 nM
same,"IC50 of the loss of surface FcγRIIA (M.F.I of IV.3-Alexa 647) on cynomolgus monocytes, whole blood, 2 h at 37 °C",[3],10.5 nM
B2,"IC50 of the loss of surface FcγRIIA (M.F.I of IV.3-Alexa 647) on monocytes, whole blood, 2 h at 37 °C",[1],0.044 nM
same,"IC50 of the loss of surface FcγRIIA (M.F.I of IV.3-Alexa 647) on monocytes, whole blood, 2 h at 37 °C",[2],0.0431 nM
same,"IC50 of the loss of surface FcγRIIA (M.F.I of IV.3-Alexa 647) on cynomolgus monocytes, whole blood, 2 h at 37 °C",[3],3.78 nM
B3,"IC50 of the loss of surface FcγRIIA (M.F.I of IV.3-Alexa 647) on monocytes, whole blood, 2 h at 37 °C",[1],0.0692 nM
same,"IC50 of the loss of surface FcγRIIA (M.F.I of IV.3-Alexa 647) on monocytes, whole blood, 2 h at 37 °C",[2],0.0537 nM
same,"IC50 of the loss of surface FcγRIIA (M.F.I of IV.3-Alexa 647) on cynomolgus monocytes, whole blood, 2 h at 37 °C",[3],1.2 nM
same,binding result,[4],no binding (tested: about 15000 ng/ml)
same,binding result,[5],no binding (tested: about 15000 ng/ml)
same,binding result,[6],no binding (tested: about 15000 ng/ml)
same,binding result,[7],no binding (tested: about 15000 ng/ml)
same,EC50 (read off the curve),[8],~5 ng/mL
same,binding result,[9],binds
B4,"IC50 of the loss of surface FcγRIIA (M.F.I of IV.3-Alexa 647) on monocytes, whole blood, 2 h at 37 °C",[1],0.0524 nM
same,"IC50 of the loss of surface FcγRIIA (M.F.I of IV.3-Alexa 647) on monocytes, whole blood, 2 h at 37 °C",[2],0.0559 nM
same,"IC50 of the loss of surface FcγRIIA (M.F.I of IV.3-Alexa 647) on cynomolgus monocytes, whole blood, 2 h at 37 °C",[3],16.4 nM
B5,"IC50 of the loss of surface FcγRIIA (M.F.I of IV.3-Alexa 647) on monocytes, whole blood, 2 h at 37 °C",[1],0.0417 nM
same,"IC50 of the loss of surface FcγRIIA (M.F.I of IV.3-Alexa 647) on monocytes, whole blood, 2 h at 37 °C",[2],0.039 nM
same,"IC50 of the loss of surface FcγRIIA (M.F.I of IV.3-Alexa 647) on cynomolgus monocytes, whole blood, 2 h at 37 °C",[3],5.14 nM
same,binding result,[4],no binding (tested: about 15000 ng/ml)
same,binding result,[5],no binding (tested: about 15000 ng/ml)
same,binding result,[6],no binding (tested: about 15000 ng/ml)
same,binding result,[7],no binding (tested: about 15000 ng/ml)
same,EC50 (read off the curve),[8],~5 ng/mL
same,binding result,[9],binds
B6,"IC50 of the loss of surface FcγRIIA (M.F.I of IV.3-Alexa 647) on monocytes, whole blood, 2 h at 37 °C",[1],0.0915 nM
same,"IC50 of the loss of surface FcγRIIA (M.F.I of IV.3-Alexa 647) on monocytes, whole blood, 2 h at 37 °C",[2],0.0644 nM
same,"IC50 of the loss of surface FcγRIIA (M.F.I of IV.3-Alexa 647) on cynomolgus monocytes, whole blood, 2 h at 37 °C",[3],1.01 nM
same,binding result,[4],no binding (tested: about 15000 ng/ml)
same,binding result,[5],no binding (tested: about 15000 ng/ml)
same,binding result,[6],no binding (tested: about 15000 ng/ml)
same,binding result,[7],no binding (tested: about 15000 ng/ml)
same,EC50 (read off the curve),[8],~5 ng/mL
same,binding result,[9],binds
